Laboratory results reported in the DeepSol protein solubility set.

Assay: soluble on expression in E. coli; label from the status in PepcDB or PDB records

Soluble on expression in E. coli, not soluble:
MGSDKIHHHHHHMHFLEKYRFLVIGHRGLPSLCLENTVESFNATFNAGMPAVELDVQYTADGVPVVFHDFDLNRLAGRNSRIGDLKWDDLSKIRLASGSTIPRLSDVLSAFENFNFFIEIKIEKFDNAERKLTDDVARMVIDRSMNDNVVMISFNASAMRYVRDHYDGIITGLDFESPDEADDAVNNNVALPYYAIIDEVFDKIKERPVIPWTVDSYSTAVRLKEMGCRGIITNTGDRFISLIE
MGSDKIHHHHHHMHLDNEADHHSENKAEAPGIQPAVTRNVADISPQIAQCAVEWLVELQAADHDEATHEAFQRWLAAHPDHKLAWQHIETVNTRFNGLTSPLGSAVAKAVLTPRRSLKRRQIIKTLVVILFAGSTGWWADEKIPWRAWTADERTHIGQRRNITLADGSRVVLNTDTAINIRFTANERRLQLVRGEILVTTNQDSASIVRPFIVEIAQSELRPLGTRFTIHQQTTSNRLSVFEGAVEIRLRQDINYRHIVQAGEQVDFSNQGIHEIHPADDTSTAWSNGMIIASSMRLADFLAELDRHRPGKLNCDPAVADLRVSGTYPLTDPEDILDALQTTLPVKIQYFTRYWVTVRPAS
MGSDKIHHHHHHMHPALWISKTGLDAQQTDISVISNNVANASTIGYKKSRAVFEDLLYQTVNQAGGISADNTKLPNGLNIGAGTKVVATQKMFSQGNMLTTDNSLDLMIEGPGFFEVQLPDGTPAYTRNGQFSLDDTGQIVTPGSGYVLQPAITIPENATGITVSAGGEVSVKIPGTAESQVIGQITMTDFINPSGLDPLGQNLYTETGASGTPIQGTASLDGLGAIRQGALETSNVNVTEELVNLIQSQRIYEMNSKVISAVDQMLAYINQNL
MGSDKIHHHHHHMHSHHPISHDVVISGAGPVGLFLACELRLAGLSVLILEKAEDPRSPLKRLPFGMRGLSAPTIEAFHRRDLLDAIAPPTTKDGSGKLVAAHWMQQPRRPGGHFAGIQFHLDAVDSSKWPYRLPGPAGTSMAVEMEQLETMLATRATAMGVEIRRGLGVEIFDQSDEDVTIRAGGEIFRARWLVGCDGGRSTVRKLGGFAFTGTDAEFTGYSVEVEIADPDALSPGRHYTPTGMYTYSRPGTIAMVEFDGATFHRTEPITLEHVQAVLRRVSGTDVTLTALRLATTWTDRAYQASAYRNGRVLLAGDAAHIHSPLGGQGLNLGIGDAMNLGWKLAATIRGDAPAGLLDSYFDERHPVGAQILDWSRAQVALMRPSRSSRALEAIIRDLIDTRDGATYFAERVWGVSLRYDVGGSHPLVGRSAPDFELADGTRPGERLRTGQALLLDFAARPALQALASRWSGRIAYVAEDARERLGLSALLVRPDGVVAWAADGEPDLEGAAQAASRWFGEPGQVAAYAKGTV
MGSDKIHHHHHHMHVVELRFECFDNTTITAAERAINGLLEAYRANGQVLGREFAVAFNEGEFRVRLLLPEKSSLAKRFNSPWVNYALEELTQAKLLHPREKYIGQDINSEVSSTETPSWQLLYTSYVHMCSPLRNGDTLQPIPLYQIPATFNGDHKRVIKWQTEWQACDELQMAAATKAEFAALDELSQCDSDLFRRGWDLRGRIEYLTKIPTYYYLYRVGGESLAAEQQRPCPRCGNTHWLLETPLLDLFHFRCDNCRIVSNISWDHL
MGSDKIHHHHHHMIAAIDIGTESARLMFKSNGEWKVLKKSYRIFFPSPEAAEQDPNEIFSAVFDLLKQVPNEDEVLYVGMSSVFHSIIGLDENLNPVTPLLNWADRRSFREKEELEKKYGVRFFYEKTACPLHPMYWPSKILWMKKNSNAKKFCSIKAYIVNKMTREFVEELSLASGTGMMNIHSLEWDGEILEITGVRKEDLPEIKSPYTQLRVKDEIAKELGFKKVYLVLGGGDGVMTNVGVNVMDPDSATVTIGTSGAFRVVMDRPVIDREGISTWCYLIDEENYVLGGAINNGGIVLMWLRDIMKFKDYNDIIEEAKESPAGANGLVFLPFLNGERAPHWRERYRGVLVGLTSSHRRSDIARAALEGICFRIKDIHNAVKRVGSVDPNRIVATGGFTSSPYWVQLLSDVLGKDIIVTNVENPSAFGAYVMALKSLGEDVEGFIEKEVRVERVFHPDSERNAVYERLYNDYKFLYEKLVDYYYKE
MGSDKIHHHHHHMIAEPFLFRSEGGFIRIPIWGHIPLSAPLKKILAHPSFLRLKGIRQLSFAQQVYPGANHTRFEHSIGVYHLMKMILQRMVSNPLALELQDERLQFDDETCRTLLATCLLHDIGHYPHAHVLEEITPAGDSSAVFAHHESLTGQFLNEEHRDTPSIAAILHDDWQVNPDTVTEIIAGKTAHRLGKLVSGTLDPDKMDYLMRDAHHCNIPYGSIDIERLIESFVPDPERQRLAITEKGIAPLESLLFAKYMMMRNVYWHHTSRTFSTMLRRLLQDVADESALPMETLRELFYFNSDDRVLFELERAIRGLGLPAAELLDAILERRVYKRAMTIRPYHEPSMEIDPVWFAYNTSHRRRKEKELEICAMLAGKTGKRLAGHEVLIDAPPSKDVFDYSDFRELRIWPTKSEHRHLVQPTDSNGYVRFDDFRESVFGSDFILSFEQYTKKFRLLCRHDLVDTLSGLEEAVVEILRR
MGSDKIHHHHHHMIAIEEIGRITPDNLGLVTVLAGEDLGQYAQMKEKLFQVIGFNKDDLAYSYFDLSEEDYQNAELDLESLPFLSDYKVVIFDQFQDITTDKKTYLDEQAMKRFEAYLQNPVDTTRLVICAPGKLDGKRRLVKLLKRDARVLEANTLKESDLKTYFQKYAHQEGLVFEAGVFDELLIKSNYDFSDTLTNIAFLKSYKTDGHISSNDVREAIPKSLQDNIFDLTQDVLLGRIDLARDLVRDLRLQGEDEIKLIAIMLGQFRMFLQVKILASKGKSESQIVSELSHYIGRKINPYQVKFAVRDSRNLPLAFLKEAIRILIETDYAIKRGTYDKDYLFDLALLKIAHKKP
MGSDKIHHHHHHMIEANQILAKMKNQKINYDKVLRKIISQWERDGERPKILLHSCCAPCSTYTLEFLTQYADIAIYFANPNIHPKSEYLRRAKVQEQFVNDFNNKTGASVKYIEAEYEPHKFMKMAKDKGLTEEPEGGLRCTACFEMRLEIVAKAALEHGYDYFGSAITLSPKKNAQLINELGMDVQNIYNVKYLPSDFKKNKGYERSIEMCNDYNIFRQCYCGCVFAAMKQGIDFKQINKDAQAFLQQF
MGSDKIHHHHHHMIENVNYARTLLTEEEVGHIVQSGTIVRYKKGQIIFSESDAADRVYFVKEGYVRIFRITQYGRRVTVGCIRSPGQLMGLAETLYGGDRTCFASAIDDVTIVVIRHQQFLDLLEKHPAIAIKVTITLAIRMREAEGIIEEMVCFQVPGRLAQLLIKMAKRAGMETPRGTKISFRLTHEDIAYMIGTSRQNVTSLLNTFKYENSIAIEDKELYILDIEKLNSWVV
MGSDKIHHHHHHMIHKRSNSPNMKPIIEIKNLAAGYDGRTVLHDVNLNVYERDFLGIIGPNGGGKTTLIKCILGLLKPTAGEINFHAPTEASSHSQLSTSNLPLSLGYLPQYSTIDRKFPISVEEVILSGLSIQKSLTSRFTPEQREKGKHIIARMGLEGLEHRSIGQLSGGQLQRALLGRAIISDPSVLILDEPSTYIDKRFEARLYELLAEINKECAIILVSHDIGTVLQQVKSIACVNETLDYHPDTGVSTEWLERNFNCPIELLGHGTLPHRVLGEHHHHH
MGSDKIHHHHHHMIKEIRQRIENFESDYVFTYQDLNLSPERSERVIKILNRLVAEGIIAKISKGRFYKPKKSVFGMLKPKLEEVVKDFLEKDGEVIGYMTGYLAFNRLGLTTQVPNIIQIGTNVRKNKTVRGMFTISFVIQSNPITKENIPLLQLLDAIKFIKEIPDTTTSQSCKCIMTIIQNLNKKDRDELLILAKKYPPMVRALLGAMVENIYGTNKALPLWNTLNPLTLYNVKIDKQVLPEVRKWRIQ
MGSDKIHHHHHHMIKIKRGLDLPISGAPEQRIEAARPVRSVALIGFDYHGMKPTMAVQVGDRVKLGQVLFTDKKNPSVSYTAPGAGVVSAIHRGEKRVLQSVVIDLDGDEQLEFARYPADKLATLSAEQVRDNLLQSGLWTALRTRPFSKVPDPESSPSSIFVTAIDTQPLAADPQVVIAEQGEAFQAGLTVLGRLARVFLCKAEGVSLPGEALSGVTAQAFSGPHPAGLPGTHIHFLDPVGAGKSVWNLNYQDVIAIGKLFTTGQLWTERVIALAGPVVEKPRLVRTRLGANLDELAAGQLQPGNNRLISGSVLGGRTAHGAYAYLGRYHLQLSCLKEGDQREFLHYLRAGVEKHSLLNVFVSRLLGGKRFAFTTSTNGSPRAMVPVGNYEAVMPLDILPTQLLRYLIVGDTEMAQKLGALELDEEDLALCSYVCAGKYEYGPILRDNLARIEQEG
MGSDKIHHHHHHMILFGTGGIRGVMRKGEFDEETVKRASLSTALWLKEKGQKSVVIAYDTRKNSKEFAELAGRVFAGEGIEAYVFPEPTPTPVLSFAVRYMKTGGGVVITASHNPPEYNGYKVYTWDGVQAIPEYTNEITEIYKKVDLSHVKEGEIKFVPPEVKESYIKAVLEIVSNLPMKTDLDIAYSPLHGTGANYVPEVLKRLGFKVRLVEEQMKPDPNFSTVPTPNPEEDEALVLLNKKGATLGLATDPDCDRVGVVFKGRRLTGNQVGVLLTDFLLDHVKVENPLVIKTIVTTDMVRPICEEKGAFLEETPTGFKFIGHLIEEHTKKGDRNFVFGFEESCGYLAGNHARDKDGVVGSVLSAVAFSNYDPYEKLEELYQKYGYYMEKLINFKFEDVDRAVEIYRSLKNYDGIIDYSKGYGNVIPNETIAFVFEKSRIFVRPSGTEPKLKVYIHVRGDTREEAEELMKESESKIKEILKL
MGSDKIHHHHHHMILKFLNETLPWVRKPSRYIGREINSVVKDPEEISLRIALVFPDTYEVGTSNHGLEILYHILNEQPDVWAERSYLPWIDMIERMKEKDIPLYTMESYTPLYQMDAVGISLEYELSYTNVVEVLKLSKIPIFFWERKRRDPIVLGGGPCSSNPEPIYGFFDAILIGDGEEAILEIAQVLKETKGEERETIWKELSRIEGVYVPAFYEQKGRKIVPVSPEYPRTIKRRIVKDLNSQPVPVKKIVPNVESVHDRAVIEVARGCTRGCRFCHASVYYRPVRERSLENILENVEEMLKNTGYEEVSLLSLSTMDHTQIGEIVSELLKRYSEKKIAVSIPSTRMDRFGVEIAGRIASVRKTGLTFAPEAATQRLRNIINKNISEEDIFATLEAAKKSGWRRVKLYFMMGLPGETNEDLEEMVKLLERVKRLGFKEVSASVSVFVPKPHTPFQFARQISPEEAYEKIKTLKRAKRSARISYHDPRMSLLEGVFSRGDRKLLDLIVKAHELGALFDEWSEMFRFDLWEKAFDETGIDPNDYLREIDPSEDFPWDHIDMGVTKEFLKEEYRKALKGETTDDCRWNRCYLCGVCFRFGVKNVLFGGERG
MGSDKIHHHHHHMILMKSYYRLLGHYYLLLRFFKNLRDLGVSLLELENILGVIYWYLFKQKYSTRCRCCSELYINQTNINPYYFASACKLKKMGLPVEIRNSVFYYDGLEVYPTVIPYIARVIKYNWQVFNMKGNPMISFTVKNHDFKAVLLKGYEGLLQFYEQFILEQYGMFDYKDKTVIDIGGFIGDTALYFYSKEARKIVSFEPSKKNYTILIKNITLNNIKNVIPINAGVWDENTKGIITNPAPTAYRVKEESKGDVALVSILDIIDSYRPDIIKMDCEGCEYKVFEKLLETGYIYDVPEYVFEAHGNIKNELLSKLRSLDEFRLCVHSDLGNMAIVSLKKL
